Results on one molecule are retold here after patent US20130309230A1 (published 2013).

This assay addresses T1, UC4F10-11 hamster anti-mouse CTLA4 antibody.
T1 construct: also called mouse anti-CTLA4 antibody (clone UC4 F10-11); anti-CTLA4
Description: bacterial display / FACS screening with labelled anti-CTLA4 antibody.
Description: Subsequent rounds of enrichment were carried out using FACS. For the initial round of FACS, bacteria were sorted using biotinylated target (5 nM) and secondary labeling step with streptavidin phycoerythrin. […] Relative affinity and off-rate screening of individual clones were performed using a ficin digested Dylight-labeled Fab antibody fragment to reduce avidity effects of the bivalent antibody due to the expression of multiple peptides on the bacterial surface. As an additional test of target specificity, individual clones were screened for binding in the presence of 20 uM E. Coli depleted IgG as a competitor.

T1 sequence (VH, as listed by the source limits assumed, chain 1 of 2): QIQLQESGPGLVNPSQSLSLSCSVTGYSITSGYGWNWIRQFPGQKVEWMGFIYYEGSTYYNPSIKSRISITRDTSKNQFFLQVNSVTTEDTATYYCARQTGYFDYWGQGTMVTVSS
T1 sequence (VL, as listed by the source limits assumed, chain 2 of 2): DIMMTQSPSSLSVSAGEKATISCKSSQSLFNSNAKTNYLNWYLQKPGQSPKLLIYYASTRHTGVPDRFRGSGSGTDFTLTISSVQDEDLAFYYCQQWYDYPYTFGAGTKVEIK

B1: Negative control (does not bind anti-CTLA4) (peptide)
peptide: PCSEWQSMVQPRCYY
notes: The printed peptide has A where the printed DNA encodes Q; also called MMneg; negative control MM
For B1, the binding result is reported as “no binding”.
